We go through eight molecules from US20240228562A1, “NOVEL LIPOCALIN MUTEINS SPECIFIC FOR CONNECTIVE TISSUE GROWTH FACTOR (CTGF)” (PIERIS PHARMACEUTICALS GMBH, priority 2021, published 2024).

Residue numbers refer to the chain shown, from its start.

The series is described as follows: Thermal stability assessment by nanoDSC. Type of series: physicochemical. To be noted: 1 mg/mL in PBS, scan 25-100° C. at 1° C./min; for TM: major transition. As for the experimental part: To determine the melting temperatures (Tms) of the lipocalin muteins, which is a general indicator for folding stability, the CTGF specific muteins, at a protein concentration of 1 mg/mL in PBS (Gibco), were scanned (25-100° C.) at 1° C./min using a capillary nanoDSC instrument (CSC 6300, TA Instruments). […] Several unfolding events can contribute to the observed thermogram. In cases with multiple transitions, the one with the major unfolding energy best represents the overall protein fold and is reported. Muteins were produced as described in Example 3. SEQ ID NOs: 3, 7, 9, 25, and 29 were expressed using E. coli, the other muteins were expressed using CHO cells.
The resulting maximum melting temperatures as well as the onset temperature of melting for exemplary lipocalin muteins and fusion proteins are listed in Table 3 below.

B1: SEQ ID NO: 63: fusion protein comprising two CTGF-binding lipocalin muteins (protein)
chain: QDSTSDLIPAPPLSKVPLQQNFQDNQFQGKWYVVGRAGNNQLREDKSPPKMWATIYELKEDKSYDVTHVHFSTKKCRYIIDTFVPGSQPGEFTAGAIKSGPGLTSPLVRVVSTNYNQHAMVFFKWVTQNREWFTITLYGRTKELTSELKENFIRFSKSLGLPENHIVFPVPIDQCIDGGGGGSGGGGSGGGGSQDSTSDLIPAPPLSKVPLQQNFQDNQFQGKWYVVGLAGNAILREDKQPAKMFATIYELKEDKSYDVTSVRFEAKSCKYTIKTFVPGSQPGEFTAGYIKSAPGQTSTLVRVVSTNYNQHAMVFFKHVTQNREIFVITLYGRTKELTSELKENFIRFSKSLGLPENHIVFPVPIDQCIDG
modifications: fusion protein
B1: the “ONSET MELTING” value was found to be 50 °C and the TM stood at 66 °C.

B2: SEQ ID NO: 70: fusion protein comprising two CTGF-binding lipocalin muteins (protein)
chain: QDSTSDLIPAPPLSKVPLQQNFQDNQFQGKWYVVGWAGNVKLREDKQPQKMSATIYELKEDKSYDVTEVVFEQKKCHYIIKTFVPGSQPGEFTAGDIKSPPGYTSSLVRVVSTNYNQHAMVFFKKVSQNREFFWITLYGRTKELTSELKENFIRFSKSLGLPENHIVFPVPIDQCIDGGGGGSGGGGSGGGGSQDSTSDLIPAPPLSKVPLQQNFQDNQFQGKWYVVGLAGNAILREDKQPAKMFATIYELKEDKSYDVTSVRFEAKSCKYTIKTFVPGSQPGEFTAGYIKSAPGQTSTLVRVVSTNYNQHAMVFFKHVTQNREIFVITLYGRTKELTSELKENFIRFSKSLGLPENHIVFPVPIDQCIDG
modifications: fusion protein
As for B2, the “ONSET MELTING” value came to 55 °C and the TM worked out at 73 °C.

B3: SEQ ID NO: 64: fusion protein comprising two CTGF-binding lipocalin muteins (protein)
chain: QDSTSDLIPAPPLSKVPLQQNFQDNQFQGKWYVVGLAGNYRLREDKDPSKMGATIYELKEDKSYDVTQVQFDDKKCLYVIETFVPGSQPGEFTLGAIKSYPGLTSQLVRVVSTNYNQHAMVFVKKVWPNLEYFQIVLYGRTKELTSELKENFIRFSKSLGLPENHIVFPVPIDQCIDGGGGGSGGGGSGGGGSQDSTSDLIPAPPLSKVPLQQNFQDNQFQGKWYVVGLAGNAILREDKQPAKMFATIYELKEDKSYDVTSVRFEAKSCKYTIKTFVPGSQPGEFTAGYIKSAPGQTSTLVRVVSTNYNQHAMVFFKHVTQNREIFVITLYGRTKELTSELKENFIRFSKSLGLPENHIVFPVPIDQCIDG
modifications: fusion protein
Turning to B3, the “ONSET MELTING” value is 56 °C and the TM is 65 °C.

B4: SEQ ID NO: 68: fusion protein comprising two CTGF-binding lipocalin muteins (protein)
chain: QDSTSDLIPAPPLSKVPLQQNFQDNQFQGKWYVVGLAGNAILREDKQPAKMFATIYELKEDKSYDVTSVRFEAKSCSYTSKTFVPGSQPGEFTAGNIKSAPGQTSTLVRVVSTNYNQHAMVFFKHVSQNRETFVITLYGRTKELTSELKENFIRFSKSLGLPENHIVFPVPIDQCIDGGGGGSGGGGSGGGGSQDSTSDLIPAPPLSKVPLQQNFQDNQFQGKWYVVGWAGNVKLREDKQPQKMSATIYELKEDKSYDVTEVVFEQKKCHYIIKTFVPGSQPGEFTAGDIKSPPGYTSSLVRVVSTNYNQHAMVFFKKVSQNREFFWITLYGRTKELTSELKENFIRFSKSLGLPENHIVFPVPIDQCIDG
modifications: fusion protein
Turning to B4, the “ONSET MELTING” value amounted to 61 °C and the TM was determined as 72 °C.

B5: SEQ ID NO: 71: fusion protein comprising two CTGF-binding lipocalin muteins (protein)
chain: B4 chain with Q47Y, A73N, S77V, S80I, A94T, T132F
modifications: fusion protein
Turning to B5, the “ONSET MELTING” value stood at 67 °C and the TM was found to be 76 °C.

B6: SEQ ID NO: 62: fusion protein comprising two CTGF-binding lipocalin muteins (protein)
chain: QDSTSDLIPAPPLSKVPLQQNFQDNQFQGKWYVVGRAGNNQLREDKSPPKMWATIYELKEDKSYDVTHVHFSTKKCRYIIDTFVPGSQPGEFTAGAIKSGPGLTSPLVRVVSTNYNQHAMVFFKWVTQNREWFTITLYGRTKELTSELKENFIRFSKSLGLPENHIVFPVPIDQCIDGGGGGSGGGGSGGGGSQDSTSDLIPAPPLSKVPLQQNFQDNQFQGKWYVVGWAGNVKLREDKQPQKMSATIYELKEDKSYDVTEVVFEQKKCHYIIKTFVPGSQPGEFTAGDIKSPPGYTSSLVRVVSTNYNQHAMVFFKKVSQNREFFWITLYGRTKELTSELKENFIRFSKSLGLPENHIVFPVPIDQCIDG
modifications: fusion protein
As for B6, the “ONSET MELTING” value amounted to 53 °C and the TM turned out to be 67 °C.

B7: SEQ ID NO: 69: fusion protein comprising two CTGF-binding lipocalin muteins (protein)
chain: QDSTSDLIPAPPLSKVPLQQNFQDNQFQGKWYVVGLAGNAILREDKQPAKMFATIYELKEDKSYDVTSVRFEAKSCSYTSKTFVPGSQPGEFTAGNIKSAPGQTSTLVRVVSTNYNQHAMVFFKHVSQNRETFVITLYGRTKELTSELKENFIRFSKSLGLPENHIVFPVPIDQCIDGGGGGSGGGGSGGGGSQDSTSDLIPAPPLSKVPLQQNFQDNQFQGKWYVVGLAGNYRLREDKDPSKMGATIYELKEDKSYDVTQVQFDDKKCLYVIETFVPGSQPGEFTLGAIKSYPGLTSQLVRVVSTNYNQHAMVFVKKVWPNLEYFQIVLYGRTKELTSELKENFIRFSKSLGLPENHIVFPVPIDQCIDG
modifications: fusion protein
As for B7, the “ONSET MELTING” value was 57 °C and the TM was found to be 64 °C.

B8: SEQ ID NO: 72: fusion protein comprising two CTGF-binding lipocalin muteins (protein)
chain: B7 chain with Q47Y, A73N, S77V, S80I, A94T, T132F
modifications: fusion protein
For the molecule B8, the “ONSET MELTING” value is 62 °C and the TM was 66 °C.
